Source: PMC9540345

Target: FLAG-HA epitope-tagged H3.1 (UniProt P68431)
Assay: proximity ligation

Q: “DAXX (death domain-associated protein 6) (from UniProt Q9UER7 1-740) (natural protein)” was tested. Which fold enrichment of PLA foci over empty vector control cells did it give?
A: The fold enrichment of PLA foci over empty vector control cells was 1.9 fold.
